Target: basigin (BSG), recombinant extracellular domain Met1-His205 (human)
Assay: ELISA; Maxisorp plates coated with 5 μg/mL of each receptor candidate; serial dilutions of PvRBP1a_(158-650)LTID and LTID (48,000 pM to 187.5 pM and 4,000 pM to 1.28 pM) in blocking solution, 16 hours at 4°C; detected with a TurboID-specific antibody; one-site binding saturation model; triplicates

PvRBP1a_(158-650)LTID fusion protein (from UniProt Q5DSE1 158-650) (domain or fragment)
Kd: 2.16 nM
